In patent publication US20210024620A1:

Assays:
rat FcRn (rat) [1] = biological target: rat FcRn (rat) (UniProt P13599); assay: Biacore SPR, pH 6.0
rat FcRn (rat) [2] = biological target: rat FcRn (rat) (UniProt P13599); assay: Biacore SPR, pH 6.0; remark: listed apart in the source
[3] = biological target: FcRn immobilised on the FcRn affinity column (biotinylated cynoFcRn in one experiment, biotinylated hFcRn in another); assay: FcRn affinity chromatography, linear pH gradient; species of the immobilised FcRn not given
rat FcRn (rat) [4] = biological target: rat FcRn (rat) (UniProt P13599); assay: Biacore, pH 6.0, apparent KD
rat FcRn (rat) [5] = biological target: rat FcRn (rat) (UniProt P13599); assay: Biacore SPR, pH 7.4
[6] = biological target: biotinylated human FcRn (human) (UniProt P55899); assay: Biacore SPR, pH 7.4
[7] = biological target: Human CD16a (FcγRIIIa V158) with C-terminal HPC4 tag (human) (UniProt P08637); assay: Biacore, FcγRIIIa V158 captured, steady-state fit, apparent KD
[8] = biological target: biotinylated human FcRn (p51 subunit residues 24-297 with C-terminal Avi-tag; beta2-microglobulin residues 21-119) (human) (UniProt P55899); assay: Biacore SPR, pH 7.4, steady state
rat FcRn (rat) [9] = biological target: rat FcRn (rat) (UniProt P13599); assay: Biacore, pH 7.4, steady state response
[10] = biological target: biotinylated human FcRn (human) (UniProt P55899); assay: Biacore, pH 7.4, steady state response
[11] = biological target: biotinylated human FcRn (human) (UniProt P55899); assay: Biacore SPR, pH 6.0
[12] = biological target: biotinylated human FcRn (p51 subunit residues 24-297 with C-terminal Avi-tag; beta2-microglobulin residues 21-119) (human) (UniProt P55899); assay: Biacore SPR, pH 6.0
[13] = biological target: biotinylated human FcRn (human) (UniProt P55899); assay: Biacore SPR, pH 6.0; remark: listed apart in the source
[14] = biological target: biotinylated human FcRn (human) (UniProt P55899); assay: Biacore, pH 6.0, apparent KD
[15] = biological target: biotinylated human FcRn (p51 subunit residues 24-297 with C-terminal Avi-tag; beta2-microglobulin residues 21-119) (human) (UniProt P55899); assay: Biacore; affinity at pH 6.0 (M^-1) over steady state RU at pH 7.4
[16] = biological target: Human CD16a (FcγRIIIa V158) with C-terminal HPC4 tag (human) (UniProt P08637); assay: Biacore SPR, FcγRIIIa-V158 captured, pH 7.4
rat FcRn (rat) [17] = biological target: rat FcRn (rat) (UniProt P13599); assay: Biacore, pH 6.0
[18] = biological target: biotinylated human FcRn (human) (UniProt P55899); assay: Biacore, pH 6.0
[19] = biological target: biotinylated human FcRn (p51 subunit residues 24-297 with C-terminal Avi-tag; beta2-microglobulin residues 21-119) (human) (UniProt P55899); assay: Biacore; inverse ratio (RU at pH 7.4 over affinity at pH 6.0)
[20] = biological target: Human CD16a (FcγRIIIa residues 17-208 with C-terminal HPC4 tag and valine at position 158) (human) (UniProt P08637); assay: Biacore SPR, HPC4-tagged FcγRIIIa-V158 captured by anti-HPC4, pH 7.4
[21] = biological target: biotinylated human FcRn (human) (UniProt P55899); assay: Biacore, biotin-captured hFcRn, pH 8.0, 1000 nM antibody
[22] = biological target: biotinylated human FcRn (human) (UniProt P55899); assay: Biacore, biotin-captured hFcRn, pH 9.0, 1000 nM antibody
[23] = biological target: biotinylated human FcRn (human) (UniProt P55899); assay: Biacore, biotin-captured hFcRn, pH 7.4
[24] = biological target: biotinylated cynomolgus FcRn (cynomolgus) (UniProt Q8SPV9); assay: Biacore, biotin-captured cFcRn, pH 8.0, 1000 nM antibody
[25] = biological target: biotinylated cynomolgus FcRn (cynomolgus) (UniProt Q8SPV9); assay: Biacore, biotin-captured cFcRn, pH 6.0
[26] = biological target: biotinylated cynomolgus FcRn (cynomolgus) (UniProt Q8SPV9); assay: Biacore, biotin-captured cFcRn, pH 8.0
[27] = biological target: biotinylated cynomolgus FcRn (cynomolgus) (UniProt Q8SPV9); assay: Biacore, biotin-captured cFcRn, pH 9.0, 1000 nM antibody
[28] = biological target: biotinylated cynomolgus FcRn (cynomolgus) (UniProt Q8SPV9); assay: Biacore, biotin-captured cFcRn, pH 7.4
[29] = biological target: biotinylated human FcRn (human) (UniProt P55899); assay: Biacore, biotin-captured hFcRn, pH 6.0
[30] = biological target: biotinylated human FcRn (human) (UniProt P55899); assay: Biacore, biotin-captured hFcRn, pH 7.4, 1000 nM antibody
[31] = biological target: biotinylated human FcRn (human) (UniProt P55899); assay: Biacore, biotin-captured hFcRn, pH 8.0
[32] = biological target: biotinylated cynomolgus FcRn (cynomolgus) (UniProt Q8SPV9); assay: Biacore, biotin-captured cFcRn, pH 7.4, 1000 nM antibody

Human CD16a (FcγRIIIa V158) with C-terminal HPC4 tag (human), sequence (P08637 17-208 F176V): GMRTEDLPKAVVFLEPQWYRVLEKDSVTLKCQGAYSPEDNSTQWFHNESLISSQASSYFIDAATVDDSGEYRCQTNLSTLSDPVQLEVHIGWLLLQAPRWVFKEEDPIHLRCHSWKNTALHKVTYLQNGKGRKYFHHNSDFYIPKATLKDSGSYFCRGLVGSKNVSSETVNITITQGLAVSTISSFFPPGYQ
biotinylated human FcRn (p51 subunit residues 24-297 with C-terminal Avi-tag; beta2-microglobulin residues 21-119) (human), sequence (P55899 24-297 limits assumed, chain 1 of 2): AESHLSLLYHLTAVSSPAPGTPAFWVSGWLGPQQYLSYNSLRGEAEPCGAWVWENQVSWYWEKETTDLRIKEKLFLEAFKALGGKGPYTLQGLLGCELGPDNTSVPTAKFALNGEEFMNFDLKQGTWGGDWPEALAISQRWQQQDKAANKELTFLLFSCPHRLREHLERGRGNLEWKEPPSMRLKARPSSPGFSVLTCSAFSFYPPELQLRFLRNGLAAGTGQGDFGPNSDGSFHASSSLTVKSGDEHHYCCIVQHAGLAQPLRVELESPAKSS
biotinylated human FcRn (p51 subunit residues 24-297 with C-terminal Avi-tag; beta2-microglobulin residues 21-119) (human), sequence (P61769 21-119 limits assumed, chain 2 of 2, further chain): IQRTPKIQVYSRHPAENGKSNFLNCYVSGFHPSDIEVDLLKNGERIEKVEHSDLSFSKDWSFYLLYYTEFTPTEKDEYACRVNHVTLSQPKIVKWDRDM
biotinylated human FcRn (human), sequence (P55899 24-297 limits assumed, chain 1 of 2): as the sequence (P55899 24-297 limits assumed, chain 1 of 2) above
biotinylated human FcRn (human), sequence (P61769 21-119 limits assumed, chain 2 of 2, further chain): as the sequence (P61769 21-119 limits assumed, chain 2 of 2, further chain) above
rat FcRn (rat), sequence (P13599 23-298 limits assumed, chain 1 of 2): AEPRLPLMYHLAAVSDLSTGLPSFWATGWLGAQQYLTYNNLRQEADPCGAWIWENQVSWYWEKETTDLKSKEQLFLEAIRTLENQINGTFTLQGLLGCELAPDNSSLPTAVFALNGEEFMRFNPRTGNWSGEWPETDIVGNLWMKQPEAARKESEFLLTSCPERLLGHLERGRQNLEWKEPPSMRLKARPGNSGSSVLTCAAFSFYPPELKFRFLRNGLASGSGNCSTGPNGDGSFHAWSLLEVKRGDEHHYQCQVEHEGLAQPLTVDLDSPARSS
rat FcRn (rat), sequence (P07151 21-119 limits assumed, chain 2 of 2, further chain): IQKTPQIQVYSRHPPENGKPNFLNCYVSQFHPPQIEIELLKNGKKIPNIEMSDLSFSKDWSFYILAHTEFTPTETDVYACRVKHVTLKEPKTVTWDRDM
Human CD16a (FcγRIIIa residues 17-208 with C-terminal HPC4 tag and valine at position 158) (human), sequence (P08637 17-208 F176V): as the sequence (P08637 17-208 F176V) above

## mAb1 YDTN (M252Y/T256D) (antibody)
Rat FcRn (rat) [1]
  Kd: 5.86 nM
Rat FcRn (rat) [2]
  Kd: 5.9 nM
[3]
  FcRn affinity column elution pH: 8.29 pH
Rat FcRn (rat) [4]
  Kd: 5.9 nM
Rat FcRn (rat) [5]
  Steady State RU: 56 RU
[6]
  Steady State RU: 9.7 RU
[7]
  Kd: 1060 nM
[8]
  Steady State Binding, pH 7.4 (RU): 9.7 RU
Rat FcRn (rat) [9]
  Steady State RU: 56 RU
[10]
  Steady State RU: 9.7 RU

## mAb1 MDQN (T256D/T307Q) (antibody)
Rat FcRn (rat) [1]
  Kd: 9.54 nM
  koff: 0.00127 s⁻¹
  kon: 133000 M⁻¹ s⁻¹
[11]
  Kd: 232 nM
  koff: 0.0872 s⁻¹
  kon: 376000 M⁻¹ s⁻¹
[12]
  Ka: 4.31e+06 M⁻¹
Rat FcRn (rat) [2]
  Kd: 9.5 nM
[13]
  koff: 0.087 s⁻¹
  kon: 380000 M⁻¹ s⁻¹
[3]
  FcRn affinity column elution pH: 7.92 pH
Rat FcRn (rat) [4]
  Kd: 9.5 nM
[14]
  Kd: 232 nM
Rat FcRn (rat) [5]
  Steady State RU: 39.1 RU
[6]
  Steady State RU: 10.7 RU
[7]
  Kd: 600 nM
[15]
  Ratio (pH 6.0/pH 7.4): 403000
[8]
  Steady State Binding, pH 7.4 (RU): 10.7 RU
[16]
  FcγRIIIa V158 affinity fold change relative to WT: 0.73 fold
Rat FcRn (rat) [9]
  Steady State RU: 39.1 RU
[10]
  Steady State RU: 10.7 RU
Rat FcRn (rat) [17]
  koff: 0.0013 s⁻¹
  kon: 13000 M⁻¹ s⁻¹
[18]
  koff: 0.087 s⁻¹
  kon: 380000 M⁻¹ s⁻¹

## mAb1 MDWN (T256D/T307W) (antibody)
Rat FcRn (rat) [1]
  Kd: 8.24 nM
  koff: 0.00129 s⁻¹
  kon: 157000 M⁻¹ s⁻¹
[11]
  Kd: 169 nM
  koff: 0.0892 s⁻¹
  kon: 529000 M⁻¹ s⁻¹
[12]
  Ka: 5.92e+06 M⁻¹
Rat FcRn (rat) [2]
  Kd: 8.2 nM
[13]
  koff: 0.089 s⁻¹
  kon: 530000 M⁻¹ s⁻¹
[3]
  FcRn affinity column elution pH: 7.92 pH
Rat FcRn (rat) [4]
  Kd: 8.2 nM
[14]
  Kd: 169 nM
Rat FcRn (rat) [5]
  Steady State RU: 42.1 RU
[6]
  Steady State RU: 12.2 RU
[7]
  Kd: 512 nM
[19]
  Ratio (pH 7.4/pH 6.0): 2.06e-06
[15]
  Ratio (pH 6.0/pH 7.4): 485000
[8]
  Steady State Binding, pH 7.4 (RU): 12.2 RU
[16]
  FcγRIIIa V158 affinity fold change relative to WT: 0.89 fold
Rat FcRn (rat) [9]
  Steady State RU: 42.1 RU
[10]
  Steady State RU: 12.2 RU
Rat FcRn (rat) [17]
  koff: 0.0013 s⁻¹
  kon: 16000 M⁻¹ s⁻¹
[18]
  koff: 0.089 s⁻¹
  kon: 530000 M⁻¹ s⁻¹

## mAb1 MDWY (T256D/T307W/N434Y) (antibody)
[20]
  FcγRIIIa Binding Steady State RU: 211 RU
[12]
  Ka: 8.4e+07 M⁻¹
[21]
  Steady State RU: 145 RU
[22]
  Steady State RU: 0.7 RU
[23]
  Kd: 101 nM
  koff: 0.05 s⁻¹
  kon: 500000 M⁻¹ s⁻¹
[24]
  Steady State RU: 197 RU
[25]
  Kd: 15 nM
  koff: 0.0103 s⁻¹
  kon: 700000 M⁻¹ s⁻¹
[26]
  Kd: 1200 nM
  koff: 0.69 s⁻¹
  kon: 620000 M⁻¹ s⁻¹
[19]
  Ratio (pH 6.0/pH 7.4): 7.02e-07
[15]
  Ratio (pH 6.0/pH 7.4): 1.42e+06
[8]
  Steady State Binding, pH 7.4 (RU): 59 RU
[27]
  Steady State RU: 1.3 RU
[28]
  Kd: 85 nM
  koff: 0.029 s⁻¹
  kon: 350000 M⁻¹ s⁻¹
[29]
  Kd: 18 nM
  koff: 0.0123 s⁻¹
  kon: 700000 M⁻¹ s⁻¹
[30]
  Steady State RU: 125 RU
[31]
  Kd: 2700 nM
  koff: 0.54 s⁻¹
  kon: 260000 M⁻¹ s⁻¹
[32]
  Steady State RU: 165 RU
